As usually defined, the koff is a measure of how fast the partners let go of each other. The term kon denotes a measure of how fast the partners come together.

From PMC3561363, “A Novel Retro-Inverso Peptide Inhibitor Reduces Amyloid Deposition, Oxidation and Inflammation and Stimulates Neurogenesis in the APPswe/PS1ΔE9 Mouse Model of Alzheimer’s Disease” (PLoS ONE, 2013) come the findings set out here.

For the assay, the target named is T1, Aβ(1–42) (UniProt P05067 672-713).
T1 construct: also called Aβ42; β-amyloid (Aβ) peptide; source: bought: rPeptide (recombinant Aβ42, Ultrapure)
Kind of assay: SPR; Aβ42 fibrils immobilised by amine coupling on a COOH5 chip (~5,000 RU), Sensi Q; RI-OR2-TAT injected at 1, 3 and 6 µM in PBS with 0.005% Tween 20 for 5 min at 30 µl/min; empty reference surface subtracted; each concentration fitted separately, 1:1 Langmuir model; apparent. Particulars: both partners purified. (Surface plasmon resonance follows binding to a sensor surface in real time, without labels.)

B1: RI-OR2-TAT (Ac-rGffvlkGrrrrqrrkkrGy-NH2) (peptide)
peptide: RGFFVLKGRRRRQRRKKRGY
HELM: PEPTIDE1{[ac].[dR].G.[dF].[dF].[dV].[dL].[dK].G.[dR].[dR].[dR].[dR].[dQ].[dR].[dR].[dK].[dK].[dR].G.[dY].[am]}$$$$V2.0
SMILES: CC(=O)N[C@H](CCCNC(=N)N)C(=O)NCC(=O)N[C@H](Cc1ccccc1)C(=O)N[C@H](Cc1ccccc1)C(=O)N[C@@H](C(=O)N[C@H](CC(C)C)C(=O)N[C@H](CCCCN)C(=O)NCC(=O)N[C@H](CCCNC(=N)N)C(=O)N[C@H](CCCNC(=N)N)C(=O)N[C@H](CCCNC(=N)N)C(=O)N[C@H](CCCNC(=N)N)C(=O)N[C@H](CCC(N)=O)C(=O)N[C@H](CCCNC(=N)N)C(=O)N[C@H](CCCNC(=N)N)C(=O)N[C@H](CCCCN)C(=O)N[C@H](CCCCN)C(=O)N[C@H](CCCNC(=N)N)C(=O)NCC(=O)N[C@H](Cc1ccc(O)cc1)C(N)=O)C(C)C
notes: source: synthetic peptide, custom made by Cambridge Peptides (>95% purity)
B1: the Kd fell in the range of 58 to 125 nM, the koff turned out to be 0.00037 s⁻¹ and the kon is 3680 M⁻¹ s⁻¹.
